This is an account of results in US20130149320A1 (CENTRE NATIONAL DE LA RECHERCHE SCIENTIFIQUE, published 2013).

Ends that are not written are not given here.

This experiment has as its target T1, Asf1 from Xenopus laevis (endogenous, high speed egg extract) (Xenopus laevis, UniProt Q69DB9 1-201, limits assumed).
T1 construct: also called Asf1 from X. laevis
Put plainly: GST pull-down on Xenopus egg extract (HSE), Western blot. Here is the method: FIG. 22. Inhibition of chromatin assembly with the B-domain of HIRA. FIG. 22A Binding of the wild-type but not the mutated form (I461D) of the B-domain of HIRA to Asf1. GST pull-down was performed on HSE extracts with […] of recombinant GST B-domain of HIRA proteins on beads. Input and flowthrough are 10% of the immunoprecipitated material. […] FIG. 22B The B-domain of HIRA inhibits nucleosome assembly independent of replication. In vitro nucleosome assembly reactions independent of DNA synthesis were performed with increasing amounts (2, 4 or 8 mg) of the recombinant GST HIRA B-domain or its mutated form (I461D) added directly into the nucleosome assembly reaction mix. The purified plasmid DNA was analyzed by agarose elecrophoresis and was visualized by staining with ethidium bromide (EtBr). The migration positions of DNA plasmid form 1 (supercoiled), form 11 (nicked circular) and lr (closed circular) are indicated.
GST pull-downs were performed by mixing […] of High speed xenopus egg extract (HSE prepared as described in (Almouzni, 1998)), 1X nucleosome assembly buffer, 300 ng p^{bluescript}, 4 mM ATP, […] creatine kinase and 3 mg of recombinant protein on beads during 3 h at 23° C. The flow through was recovered and beads were washed 3 times with PBS supplemented with 150 mM NaCl and 0,5% NP40. Different fractions were loaded on a NuPAGE 4-12% (Invitrogen) and ran in MES buffer. […]
(In general: A western blot detects proteins with antibodies after separation by electrophoresis.)

T1 sequence (Q69DB9 whole entry): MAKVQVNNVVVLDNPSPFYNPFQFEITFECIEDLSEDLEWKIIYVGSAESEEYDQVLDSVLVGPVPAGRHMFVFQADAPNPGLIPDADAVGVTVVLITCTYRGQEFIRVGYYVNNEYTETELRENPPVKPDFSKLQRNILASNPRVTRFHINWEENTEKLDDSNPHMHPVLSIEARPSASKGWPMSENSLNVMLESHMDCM

B1: recombinant GST HIRA B-domain I461D (mutated Xenopus laevis HIRA B-domain, aa 435-480) (other, not shown: a dimerising Fc or GST; small tags and cut ends)
chain: GESLEDIRKNLLKKQVETRTADGRRRDTPLCIAQLDTGDFSTAFFN
modifications: also: GST fusion tag, sequence not given here
notes: also called mutated GST-B-domain I461D; mutated form (I461D) of the B-domain of HIRA
As to B1, the binding result was “no binding (tested: 3 mg of recombinant protein on beads)”.
